Reference: paper PMC4705439 (Kidney international, 2016)
Changes are numbered by the printed parent chain. In names and notes the source's numbering stands. Blank lines part the entries; values can stand above or below the binder they belong to.

Key:
[1] = target: the molecule itself; assay: non-reducing SDS-PAGE with immunoblot
[2] = target: T1, Peroxiredoxin 6 (PRDX6), native, human kidney (human (endogenous in human kidney)), P30041; assay: non-reducing SDS-PAGE with immunoblot; details: remark: other sources report otherwise
T1 chain: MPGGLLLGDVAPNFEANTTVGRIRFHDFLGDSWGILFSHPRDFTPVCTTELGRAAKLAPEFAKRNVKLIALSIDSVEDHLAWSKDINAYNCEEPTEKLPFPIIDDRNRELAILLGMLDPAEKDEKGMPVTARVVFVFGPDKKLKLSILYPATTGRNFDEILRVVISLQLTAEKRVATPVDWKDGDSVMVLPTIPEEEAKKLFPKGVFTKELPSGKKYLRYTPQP

[3] = target: the molecule itself; assay: non-reducing SDS-PAGE with Coomassie stain

B1: Peroxiredoxin 6 (PRDX6), native, mouse kidney (natural protein, mouse (endogenous in mouse kidney), UniProt O08709 1-224, looked up)
chain: MPGGLLLGDEAPNFEANTTIGRIRFHDFLGDSWGILFSHPRDFTPVCTTELGRAAKLAPEFAKRNVKLIALSIDSVEDHLAWSKDINAYNGETPTEKLPFPIIDDKGRDLAILLGMLDPVEKDDNNMPVTARVVFIFGPDKKLKLSILYPATTGRNFDEILRVVDSLQLTGTKPVATPVDWKKGESVMVVPTLSEEEAKQCFPKGVFTKELPSGKKYLRYTPQP
- stoichiometry N [1]: 2

- stoichiometry N [2]: 2
B2: Peroxiredoxin 6 (PRDX6), native, human kidney, P30041 1-224 (natural protein)
chain: T1 chain

B3: N-terminal histidine-tagged PRDX6 with cysteine 47 changed to alanine (HisPRDX6-C47A) (natural protein, UniProt P30041 1-224, looked up)
chain: T1 chain with C47A
- stoichiometry N [3]: 2
